# Experimental data taken from PMC5573325.
# Experiments:
# [1] = biological target: integrin αIIbβ3 (human (endogenous in platelets)) (UniProt P08514); assay: flow cytometry on cells; FITC-triflavin (2 µg/ml) added to resting washed human platelets treated with 0.3 µM TQ-6
# [2] = biological target: integrin αIIbβ3 (human (endogenous in platelets)) (UniProt P08514); assay: flow cytometry on cells; FITC-triflavin (2 µg/ml) added to resting washed human platelets treated with 0.5 µM TQ-6
# [3] = biological target: integrin αIIbβ3 (human (endogenous in platelets)) (UniProt P08514); assay: flow cytometry on cells; FITC-triflavin (2 µg/ml) added to resting washed human platelets (3.6 × 10^8 cells/ml) in Tyrode's solution, 3 min; no additive (positive control)
# Chain of UniProt P08514 (P08514 32-1039, chain 1 of 2): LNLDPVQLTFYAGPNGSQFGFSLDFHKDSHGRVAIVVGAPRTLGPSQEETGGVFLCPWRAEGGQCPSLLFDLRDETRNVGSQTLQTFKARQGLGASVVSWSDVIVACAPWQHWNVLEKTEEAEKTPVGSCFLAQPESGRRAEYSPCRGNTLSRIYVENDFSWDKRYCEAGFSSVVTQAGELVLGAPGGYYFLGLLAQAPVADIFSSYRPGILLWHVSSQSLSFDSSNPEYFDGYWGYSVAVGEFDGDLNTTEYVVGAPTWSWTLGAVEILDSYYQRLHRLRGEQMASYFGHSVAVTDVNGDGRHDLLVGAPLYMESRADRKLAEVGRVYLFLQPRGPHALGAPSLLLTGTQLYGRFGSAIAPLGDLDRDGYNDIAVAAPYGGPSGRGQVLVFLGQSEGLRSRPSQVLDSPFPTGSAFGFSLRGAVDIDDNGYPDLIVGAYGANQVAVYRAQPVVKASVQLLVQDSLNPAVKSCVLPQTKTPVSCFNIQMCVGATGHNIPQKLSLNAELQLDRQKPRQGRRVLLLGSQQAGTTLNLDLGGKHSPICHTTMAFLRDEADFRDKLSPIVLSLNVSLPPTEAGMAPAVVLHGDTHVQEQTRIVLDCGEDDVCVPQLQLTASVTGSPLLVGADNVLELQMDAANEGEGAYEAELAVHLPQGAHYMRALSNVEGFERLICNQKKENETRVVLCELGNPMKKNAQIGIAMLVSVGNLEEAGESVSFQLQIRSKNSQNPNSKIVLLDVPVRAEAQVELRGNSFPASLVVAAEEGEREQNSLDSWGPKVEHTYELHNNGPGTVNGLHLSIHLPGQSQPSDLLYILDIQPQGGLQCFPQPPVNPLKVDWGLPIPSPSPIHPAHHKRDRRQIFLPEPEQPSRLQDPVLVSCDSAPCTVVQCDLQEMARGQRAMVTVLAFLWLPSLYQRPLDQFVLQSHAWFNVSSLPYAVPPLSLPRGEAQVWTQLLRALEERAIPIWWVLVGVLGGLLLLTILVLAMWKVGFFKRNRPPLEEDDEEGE
# Chain of UniProt P08514 (P05106 27-788, chain 2 of 2, further chain): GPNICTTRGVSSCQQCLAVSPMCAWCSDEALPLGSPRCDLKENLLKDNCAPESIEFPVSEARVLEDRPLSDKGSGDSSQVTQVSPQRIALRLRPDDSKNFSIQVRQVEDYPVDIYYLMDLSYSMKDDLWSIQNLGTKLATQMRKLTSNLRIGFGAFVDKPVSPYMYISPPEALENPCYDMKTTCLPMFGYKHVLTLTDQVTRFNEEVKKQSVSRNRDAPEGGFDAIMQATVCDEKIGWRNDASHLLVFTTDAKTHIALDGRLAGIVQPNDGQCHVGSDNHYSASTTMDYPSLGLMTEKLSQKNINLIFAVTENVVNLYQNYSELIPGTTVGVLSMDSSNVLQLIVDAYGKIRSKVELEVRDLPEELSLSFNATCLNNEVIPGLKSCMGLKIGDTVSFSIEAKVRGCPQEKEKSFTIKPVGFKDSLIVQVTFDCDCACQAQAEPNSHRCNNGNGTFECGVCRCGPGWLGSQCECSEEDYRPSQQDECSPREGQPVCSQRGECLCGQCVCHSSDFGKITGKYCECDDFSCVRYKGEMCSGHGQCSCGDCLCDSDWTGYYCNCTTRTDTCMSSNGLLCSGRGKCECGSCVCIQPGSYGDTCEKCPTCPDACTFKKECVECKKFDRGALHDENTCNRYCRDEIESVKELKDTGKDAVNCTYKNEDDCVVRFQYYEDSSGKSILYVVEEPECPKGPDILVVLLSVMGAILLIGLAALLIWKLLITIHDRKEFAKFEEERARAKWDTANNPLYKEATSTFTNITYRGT
substance,measurement,setting,value
triflavin (natural protein),relative fluorescence intensity,[1],1260
same,relative fluorescence intensity,[2],1220
same,relative fluorescence intensity,[3],1150
